Experiment: soluble on expression in E. coli; label from the status in PepcDB or PDB records

Row | Sequence | soluble on expression in E. coli
1 | MPLGLGRRKKAPPLVENEEAEPGRGGLGVGEPGPLGGGGSGGPQMGLPPPPPALRPRLVFHTQLAHGSPTGRIEGFTNVKELYGKIAEAFRLPTAEVMFCTLNTHKVDMDKLLGGQIGLEDFIFAHVKGQRKEVEVFKSEDALGLTITDNGAGYAFIKRIKEGSVIDHIHLISVGDMIEAINGQSLLGCRHYEVARLLKELPRGRTFTLKLTEPRKAFDMISQRSAGGRPGSGPQLGTGRGTLRLRSRGPATVEDLPSAFEEKAIEKVDDLLESYMGIRDTELAATMVELGKDKRNPDELAEALDERLGDFAFPDEFVFDVWGAIGDAKVGRYLEHHHHHH | not soluble
2 | MKHHHHHPMVPSYDSFDSEDYPAALPNHKPKGTFKDYVRDRADLNKDKPVIPAAALAGYTGSGPIQLWQFLLELLTDKSSQSFISWTGDGWEFKLSDPDEVARRWGKRKNKPKMNYEKLSRGLRYYYDKNIIHKTAGKRYVYRFVSDLQSLLGYTPEELHAMLDVKPDADE | soluble
3 | MKVTKADIVISAVKPEQYPDGDLPEIALAGRSNVGKSSFINKILNRKKLVRISSKPGKTQTLNFFLINEMMHFVDVPGYGYAKVSKTERAAWGKMIETYFTTREQLDAAVLVVDLRHKPTNDDVMMYDFLKHYDIPTIIIATKADKIPKGKWQKHLKVVKETLDIESGDEVVLFSSETGLGKEEAWKAIHKFTKTKNA | not soluble
4 | GMNNIIVGMGEALWDVLPEGKKIGGAPANFAYHVSQFGFDSRVVSAVGNDELGDEIMEVFKEKQLKNQIERVDYPTGTVQVTLDDEGVPCYEIKEGVAWDNIPFTDELKRLALNTRAVCFGSLAQRNEVSRATINRFLDTMPDIDGQLKIFDINLRQDFYTKEVLRESFKRCNILKINDEELVTISRMFGYPGIDLQDKCWILLAKYNLKMLILTCGINGSYVFTPGVVSFQETPKVPVADTVGAGDSFTAAFCASILNGKSVPEAHKLAVEVSAYVCTQSGAMPELPVILKDRLL | soluble
5 | MLQNSRIKMNPKKLYQADGHAVQELLPAMKILYQAKAEDPNTDNSPKWTQVKNKLSSKMQEVRITRQLSSQLPETGALLSELLSRQEFISQQHERAASRAVPLAEAEKVLQATVQNIAQETEQLSNKLNNVASDEAELDEKIERKKREYEQLQKRFAKLQSFRPQYMDEYERFEERLKKLYEVYVLNFRNLSYLRKVHDDLARSERQRQEELEKAMRMAVEKMRLEQEKKDAIGLHDDDGSDAPLVDRRQSVRKVYGNMMGGDASDDDEDDEDDEDDEIIRMDDNVAQHHKRELHRQEEDEERSEADYMVGITTAHVADDAKSDLSSGDDF | not soluble
6 | MGSDKIHHHHHHMKHMNNSVDQQIALFGQSGSGKTALLCSFYGAARDSTQSEGQLFELSAKDDRHTKLMKMYLGMKEDSLAPPQNRFESHKTVFSLKQKNIPIKDAAKSDQVNLTWHDYPGEWFEGGAVTDSEKQDKVETFRNLLGSDVALFLVDGQKLHDYANEEERYLSYLFDGFIENLNQIKDAILEGGKQLQQFPRIWVIALSKADLWPDLQVKDFENLLNKKAGNEIIALRSKLLEFIDNDEAFSFGKDFLLLSSAKFTPGHIDISQRKGVDVLLPLACVLPMQRHLWWQELKVLPINLADILLGNEIAQMGFKIVSKVLKNKVSGTNNKAMAALVFAELVRDMVDQPTELLQKAREEAVGRREFLKAITAEFTRKLNQAEADQVLVRDFA | not soluble
7 | MRILAFPYTHTLSHLSRVLAVALELRRMGHEVVFAGESAKVSFVSQQGFDVVPIHEPDPEMLFGNIRSGKLRFVEDAELLQMLTADIEVIRSLKPDLVLSDGRFSAPLSTHLTNVRHAAIVNASSTEYRALPYVPFFDWMPPWLISRDAMIWKALVRLNLFLEMKLFDNVMKVFKRLSRELNTNRTVTATNCLTGKDITLLADIPEYFPSRNLPASYHYVGPLTWKSVLAPPAWWPLDIPSSPLVYVTMGTTGVSEFFSKLGPSLSTSFFSSIVTTGGQSSELKPMPGKVYVESYLDGDLVMERSDVVICHGGNGTIYQALSHGKPVIGIPTIPDQKFNMRRVEAMGFGKSLDLKQFLEKPSLLADTVKQVLSDHSFRNSAQKIQAVLKSYNAATTSAKILIDSILLEHHHHHH | not soluble
8 | MGSDKIHHHHHHMQYNFKVEAFEGPLDLLLHLIHRYEIDIYNIPVAEITEQYLSYVHTMKELQLDVASEYLVMAATLLQIKSKMLLPKHEEDVLDNGDDFIDDPRQELMERLIEYKKYKQVATELKEREQERAQLYTRPPIDFTSLQQEEETSLPLDVTLYDMLAAFQKLMRRKKAKKPVTTRITRQEIPIEQRMTDILKQLEIQGGRQSFYDLFVDDEREIMVVTFLAVLELMKNQQIVIEQEHNFDEIFVSSYTKSA | not soluble
9 | MRVATFSLVAQDPKTGDLGVAVASKFLAVGAVVPFAEAGVGAIATQSYANPRYGPQGLALLRQGASPEGVLEAFRRTDPGLEKRQFGLVAATGESLTFTGAECHPWAGGVAGKGFAAQGNLLSGSEVVEAMVETFLTAQAPFPERLLLALKAGEEAGGDRRGKQSAALLVVGEGKGYGGLWDRYVDLRVDDHPEPIDELFRLLSLHRLLFERPKGRRPLTEEEVRFFQGVLGRLGLYAGEAHGVFDEATERAFLALIGMENLEERYRGGPEVDEATLSYLKGRYGWS | soluble
10 | CFTPESTALLESGVRKPLGELSIGDRVLSMTANGQAVYSEVILFMDRNLEQMQNFVQLHTDGGAVLTVTPAHLVSVWQPESQKLTFVFADRIEEKNQVLVRDVETGELRPQRVVKVGSVRSKGVVAPLTREGTIVVNSVAASCYA | soluble
11 | MKLKVVYRKVSDYICYDLKEIVLPSSLPDPPHVVKRRKLTWHERFLVLKEASRLYAASWVRDIGPELRPNDYKKQGDAEPKKQAKEAENEPSVLEDLAVAARGGMETLRPALHRLYMTRASNYKDALTSFIKGYHEGLQQVMQNKAESEAPADEADKSKKTT | soluble
12 | AHHHHHHGSPKIEPFEKYTERYEEWFERNKFAYLSELNALKSLLPTRECVEVGIGSGRFAAPLGIKMGVEPSKKMAEIARKRGIRVIEGVAENLPFEDNSLDCILMVTTICFVDDPEKAIKEAYRVLKPGGYIVIGFVDKESLIGREYEKRKDKSVFYRDARFFSAREIMELLERNGFKIDGVVQTLFKKLDEIRDVEPVEEGYGRGSFVVIRAKKVV | soluble
13 | MTVVIGVLALQGAFIEHVRHVEKCIVENRDFYEKKLSVMTVKDKNQLAQCDALIIPGGESTAMSLIAERTGFYDDLYAFVNPSKVTWGTCAGLIYISQQLSNEAKLVKTLNLLKVKVKRNAFGRQAQSSTRICDFSNFIPHCNDFPATFIRAPVIEEVLDPEHVQVLYKLDGKDNGGQELIVAAKQKNNILATSFHPELAENDIRFHDWFIREFVLKNYSK | not soluble
14 | MSLSLVIAAGTILGACGNSEKSSGSGEGKNKFSVAMVTDVGGVDDKSFNQSAWEGIQAFGKENGLKKGKNGYDYLQSKSDADYTTNLNKLARENFDLIYGVGYLMEDSISEIADQRKNTNFAIIDAVVDKDNVASITFKEQEGSFLVGVAAALSSKSGKIGFVGGMESELIKKFEVGFRAGVQAVNPKAVVEVKYAGGFDKADVGKATAESMYKSGVDVIYHSAGATGTGVFTEAKNLKKEDPKRDVWVIGVDKDQYAEGQVEGTDDNVTLTSMVKKVDTVVEDVTKKASDGKFPGGETLTYGLDQDGVGISPSKQNLSDDVIKAVDKWKKKIIDGLEIPATEKELKTFKAEEGGSHHHHHH | soluble
15 | MPDLAGDLAAVLPPRPDTPGGEALPTDSGDVLRQGDILGRRVQSVRLGWDQLTSVQLWMCEQVLGIESAAEDEKPRRTRADKWALNYQAAKQFYEREGHLQVARKWVERIVIGGDGDGGDDKEEREHKLGARIGIQRSRAATPTPERMELLSAIGMRWSLEHHHHHH | not soluble
16 | MDMNEEYGLTPYETREILFYKTDNGEVRVEILLYQENLWLTQAKMAELFEVQKAAISKHLKNIFTSGELQEEAVVSKMETTAADGKRYNTSYYNLDAIIAVGYRVNSKKATMFRIWANRVLKEFIIKGYVMDDARLREPENLFGKDYFEEQLERIRDIRSSERRFYQKITDIYSQCSADYDVNSPVTKEFFATVQNKLHYAVTHHTAAEIVYGRADSTKPNMGLTTWKNAPQGRIRKSDVSIAKNYLNEEEMINLNEIVTMYLDYAERQARRGNIMYMQDWVNRLDAFLQFNEEDILHDKGKVTAAIAKAFAESEFEKFRVLQDRTYQSDFDRLVANIEENSKQTK | not soluble
17 | MTEEIVELVLRERISPLLRSHGGDLSLSQIKDKTVFVRFSGACRFCPAAHETVEKIVQAMIREYFKDDNIDVILENSVSDDLLEQAKNILRKPK | not soluble
18 | MQKTVVEIEKASHVLKLLGDKTRLTIMAILKQRECCVCELLEVFDMSQPAISQHLRKLKDAGLVKEDKRGQWIYYSLNSQNELYDFIQDILQHIPDQTENIRKIEETNPTLRCGC | soluble
19 | MGSDKIHHHHHHMTVAQLLIPQMYSSKSTGEAVGRHPLNFYESPSWFTTELLRHVRLSGVVGEPCVGMGAIASLLSVWPYTKQMWTNDIDPHKSANYQMDATLSESWAKFPDCDWICTNPPYSEFAAPIIKNAYCKAHVGVAAFLLTSFLEPCDDRADFLQQHPPSLVLIMPRFCFRKDKRGTRWATDNVTISCFVWDKRATGQQIIVRPKSAIAGFYKNPEQAISQERAEKIVRAIAKGEL | not soluble
20 | MESSSTASQSGSRREATRQKLYEAAVTLIAEQGFSATTVDEIAERAGVAKGTVYYNFASKSVLFEELLRHGVGLLTASLRQAAERTAREGRGRVDALDAMIRAGLVFIDRYPAFTQLYVAELWRTNRAWQSTLLVVRQEAVAVVEGVLREGVASGEFSEDIDVPLTAAALVGMVLVAALDWKAFQPERSLDDVHAALSRLLQGRVSGRG | not soluble
21 | GPGSMASTSGPASLEEAALASLGNYSPEQLQMAETALRAVLMEKVQALAAEHGDAFIQSLVQKEIARTRKMETELANVKKRLGVQERCVDSMRMDVRKVKAQEEKSKYICQNLQETARRREQLTEKMQPEMEAYRSDVRERVSENVQSIWAECEKRRERVETVEAEVTELEAGLAHKKETFERSFAEFQDGLKGRTAEYQELIVAYQEATKEVELIEAQLMLVRRERQSVETTRAALQQQLEVYEKQFDGFAEAVMKPEDVEALAKRQHDQAQMRITELEAEKTNVHQQRLQMDKELTDLRAKHASLKREMQQLEKAKTAAEKKCRQAQQSRQEKK | not soluble
22 | MATFESSLKPRLIYVFAIADARHEGSLKIGETTLNDDVGSASTEPNSEVLNKAAKARIDQYTKTAGIGYELLYTELTIYFSGGRVCSFNDKQVHSVLERSGVKRKSFAGATEWYSCDLATVKRAISAIKEGKDSLGASEVTLSDNPIILRPEQKEAIERTLKQFRKGNKMLWNAKMRFGKTLCALRVAKEMEAVRTIIITHRPVVDASWFEDFGKTFYDRPEWHYGSRSKGESFASLEKLASQGKKCVYFASMQDMRGSKDVGGKFDKNNEVFSTSWDLVIVDEAHEGTQTELGKAVLGQLMGKDTKALHLSGTPYNLFDQHKEEEVFTWDYVMEQQAKIDWEINHLGDTNPYASLPAIHIYTYDLGRLISEYSDEEKAFNFREFFRTREDGSFVHEGDIDRFLSLLCREDEEALYPYSNEHFRQIFRHTLWILPGVRAAKALSKKLSKHPIFGLFKVANVAGDGDDEEEESRDALELVNQAIGKDPDETYTITLSCGRLTTGVSIKP | not soluble
23 | MGSDKIHHHHHHMVRDIDKTTSLHLNNEAQFLCFRLDAEKDAQLYGMNIFKIREIIHYDGEVTEILGGSDGVMLGFLSVRGESIPLVDVKRWLHYNANDPSRDLKECSVKDDHNLVIVCHFSNHSIALKVLKIERIIHKNWTEISAGDKQGINEEGKLSAITRFDEERVVQILDVEKMISDVFPSLKDLDDLTLRCIEAIQSQKLILIAEDSLSALKTLEKIVQTLELRYLAFPNGRELLDYLYEKEHYQQVGVVITDLEMPNISGFEVLKTIKADHRTEHLPVIINSSMSSDSNRQLAQSLEADGFVVKSNILEIHEMLKKTLS | not soluble
